Data published in US7884199B2, “HCV NS3-NS4 protease resistance mutants” (priority 2003, dated 2011).
Residue numbers refer to the chain shown, from its start. In names and notes the source's numbering stands.

B1: A156S (1b) (protein)
chain: APITAYSQQTRGLLGCIITSLTGRDRNQVEGEVQVVSTATQSFLATCVNGVCWTVYHGAGSKTLAGPKGPITQMYTNVDQDLVGWQAPPGARSLTPCTCGSSDLYLVTRHADVIPVRRRGDSRGSLLSPRPVSYLKGSSGGPLLCPSGHAVGIFRSAVCTRGVAKAVDFVPVESMETTMRSHHHHHH
B2: D168V (1b) (protein)
chain: B1 chain with S156A, D168V
B3: A156T (protein)
chain: B1 chain with S156T
B4: A156V (protein)
chain: B1 chain with S156V

Assay: Substrate kinetic parameters of NS3 serine protease domains with KK-NS4A peptide and FRET substrate
Format: biochemical, Hepatitis C virus
Method: Enzymatic activity was determined using a modification of the assay described by Taliani et al., [Taliani et al., Anal. Biochem., 240, pp. 60-67 (1996)]. An internally quenched fluorogenic peptide (FRET substrate), Ac-DED(EDANS)EEαAbuψ[COO]ASK (DABCYL)-NH2, was purchased from AnaSpec Incorporated (San Jose, Calif.). The assay was run in a continuous mode in a 96-well microtiter plate format. The buffer was composed of 50 mM HEPES (pH 7.8), 100 mM NaCl, 20% glycerol, 5 mM DTT, and 25 μM KK4A peptide ([…]; SEQ ID NO:5). The KK4A peptide represents the central region of the NS4A cofactor from genotype 1a with lysine residues added for improved solubility [Landro et al. Biochemistry, 36, pp. 9340-9348 (1997)]. The reaction was initiated by the addition of the FRET substrate after a 10-min pre-incubation of the buffer components with 2 nM of the NS3 protease at room temperature. The reaction was monitored at 30° C. for 20 min using a Molecular Devices fmax fluorometric plate reader. The filters for excitation and emission wavelengths were 355 nm and 495 nm, respectively. For determination of substrate kinetic parameters, concentrations of the FRET peptide were varied from 0.5-7.0 μM. Inter-molecular quenching was not observed in this range. The substrate kinetic parameters, Km and Vmax, were determined by fitting the data to the Michaelis-Menten equation. […] This mixture was incubated for an additional 15 min at room temperature prior to an incubation with the FRET substrate for another 20 min at 30° C. Seven to eight concentrations of compound were assayed, and the resulting data were fitted to the integrated form of Morrison's equation for tight binding inhibition [J. F. Morrison, Biochim. Biophys. Acta, 185 pp. 269-286 (1969)]. All substrate and inhibitor data were fitted using Marquardt-Levenberg nonlinear regression with GraphPad Prism software.
Five HCV NS3 serine protease domain proteins, including the genotype 1a and 1b wild-type (wt) proteases, and three mutants (A156S, D168V, and D168A) of the genotype 1b, were expressed and purified as described in Materials and Methods. The kcat and Km values of these NS3 proteases were determined using the KK-NS4A core peptide and the FRET substrate.
Table 4 summary: Three HCV NS3 serine protease domain proteins of the Con1 strain, including the wild-type proteases and two mutants, A156T and A156V, were expressed and purified. The kcat and Km values of these NS3 proteases were determined using the KK-NS4A core peptide and the FRET substrate, and the average of two independent assays was shown.

[1] = Table 1, FRET substrate, KK-NS4A core peptide
[2] = Table 4, Con1 strain, average of two independent assays

Molecule	Kcat [1]	Km [1]	Kcat [2]	Km [2]
B1	0.6 s⁻¹	0.9 µM	–	–
B2	0.6 s⁻¹	1.2 µM	–	–
B3	–	–	0.2 s − 1	1.3 µM
B4	–	–	0.6 s − 1	2.6 µM
